Assay results published in paper PMC4720525.

Target: YY1 (Mus musculus, UniProt Q00899 1-414)
Experiment: EMSA

Sequence of YY1 (Q00899 whole entry): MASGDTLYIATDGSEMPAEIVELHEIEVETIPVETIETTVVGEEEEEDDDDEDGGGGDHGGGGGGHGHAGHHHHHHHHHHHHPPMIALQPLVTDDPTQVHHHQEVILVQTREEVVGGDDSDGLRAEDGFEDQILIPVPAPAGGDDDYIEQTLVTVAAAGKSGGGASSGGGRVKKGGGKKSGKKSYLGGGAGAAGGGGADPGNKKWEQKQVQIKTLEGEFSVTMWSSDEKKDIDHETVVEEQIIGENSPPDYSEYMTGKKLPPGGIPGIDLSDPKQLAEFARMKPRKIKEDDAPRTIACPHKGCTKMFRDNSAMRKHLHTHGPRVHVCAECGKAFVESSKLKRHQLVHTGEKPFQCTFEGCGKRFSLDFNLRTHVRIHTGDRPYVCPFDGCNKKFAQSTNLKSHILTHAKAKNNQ

B1: Arid1a promoter 30-bp DNA (dsDNA)
DNA 1: CTCTTCTCTCTTAAAATGGCTGCCTGTCTG
DNA 2: CAGACAGGCAGCCATTTTAAGAGAGAAGAG
- binding result: binds
